Assay results: PMC2413239

Target: X. laevis FcRγ subunit, c-myc-tagged (X. laevis)

surface expression of XFL1.7-HA on transiently transfected 293T cells (anti-HA surface staining, flow cytometry), alone against co-transfected with FcRγ: 2 fold
Substance: XFL1.7-HA with its own TM1 region (X. laevis XFL1.7, extracellular plus transmembrane part) (domain or fragment)
